Source: ChEMBL document CHEMBL1157618, “Noncovalent tripeptidyl benzyl- and cyclohexyl-amine inhibitors of the cysteine protease caspase-1” (J Med Chem, 2010)

Substrate: CC(C)[C@H](NC(=O)c1ccc2ccccc2c1)C(=O)N[C@@H](C)C(=O)N[C@H](CNCc1ccccc1O)CC(=O)O
Settings: Homo sapiens
Description: Activity of human recombinant caspase 1

B1: Caspase-1 (Homo sapiens), P29466 (protein)
chain: MADKVLKEKRKLFIRSMGEGTINGLLDELLQTRVLNKEEMEKVKRENATVMDKTRALIDSVIPKGAQACQICITYICEEDSYLAGTLGLSADQTSGNYLNMQDSQGVLSSFPAPQAVQDNPAMPTSSGSEGNVKLCSLEEAQRIWKQKSAEIYPIMDKSSRTRLALIICNEEFDSIPRRTGAEVDITGMTMLLQNLGYSVDVKKNLTASDMTTELEAFAHRPEHKTSDSTFLVFMSHGIREGICGKKHSEQVPDILQLNAIFNMLNTKNCPSLKDKPKVIIIQACRGDSPGVVWFKDSVGVSGNLSLPTTEEFEDDAIKKAHIEKDFIAFCSSTPDNVSWRHPTMGSVFIGRLIEHMQEYACSCDVEEIFRKVRFSFEQPDGRAQMPTTERVTLTRCFYLFPGH
  Km: 5.8 µM
